Measurements published in US6649742.

Molecular target: T1, human CD5 cell differentiation marker (human, UniProt P06127 25-495)
T1 sequence: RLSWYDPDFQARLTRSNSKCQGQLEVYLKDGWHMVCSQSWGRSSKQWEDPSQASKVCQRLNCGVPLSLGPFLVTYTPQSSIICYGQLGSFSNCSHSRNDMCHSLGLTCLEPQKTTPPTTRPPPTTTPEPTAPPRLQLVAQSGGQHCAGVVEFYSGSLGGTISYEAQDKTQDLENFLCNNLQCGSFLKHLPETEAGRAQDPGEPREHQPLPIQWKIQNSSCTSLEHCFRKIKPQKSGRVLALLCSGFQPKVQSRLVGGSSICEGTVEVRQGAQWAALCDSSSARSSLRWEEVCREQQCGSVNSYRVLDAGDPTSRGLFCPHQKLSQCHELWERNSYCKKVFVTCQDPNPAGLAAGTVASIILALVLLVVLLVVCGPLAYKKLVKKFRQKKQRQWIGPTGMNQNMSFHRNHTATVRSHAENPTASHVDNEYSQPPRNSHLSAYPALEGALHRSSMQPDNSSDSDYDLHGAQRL
Test: cell-based or functional assay

B1: he3Fab-rGelA50(C44) (other)
light: DIQMTQSPSSLSASVGDRVTITCRASQDINSYLSWFQQKPGKAPKTLIYRANRLESGVPSRFSGSGSGTDYTLTISSLQYEDFGIYYCQQYDESPWTFGGGTKLEIK
heavy: EIQLVQSGGGLVKPGGSVRISCAASGYTFTNYGMNWVRQAPGKGLEWMGWINTHTGEPTYADSFKGRFTFSLDDSKNTAYLQINSLRAEDTAVYFCTRRGYDWYFDVWGQGTTVTVSS
chain: GLDTVSFSTKGATYITYVNFLNELRVKLKPEGNSHGIPLLRKKCDDPGKAFVLVALSNDNGQLAEIAIDVTSVYVVGYQVRNRSYFFKDAPDAAYEGLFKNTIKTRLHFGGSYPSLEGEKAYRETTDLGIEPLRIGIKKLDENAIDNYKPTEIASSLLVVIQMVSEAARFTFIENQIRNNFQQRIRPANNTISLENKWGKLSFQIRTSGANGMFSEAVELERANGKKYYVTAVDQVKPKIALLKFVDKDPK
modifications: Cys 44 disulfide-linked to the M2IT linker on the Fab; lysine residues of the Fab derivatized with 5-methyl-2-iminothiolane (M2IT), 1 M2IT per Fab
IC50 (pMT), CEM Cells; whole cell cytotoxicity (inhibition of protein synthesis): 173 pMT | IC50 (pMT), HSB2 Cells; whole cell cytotoxicity (inhibition of protein synthesis): 165 pMT
